Assay results as given in patent US20210292393A1 (published 2021).
Residue numbers refer to the chain shown, from its start.

B1: antibody 407 (antibody, V domains shown)
VH: QVQLVESGGGVVQPGRSLRLSCAASGFTFSSYGMHWVRQAPGKGLEWVAVISYDGSNKYYADSVKGRFTISRDNSKNTLYLQMNSLRAEDTAVYYCAKCGWDYDFWVGQGYGMDVWGQGTTVTVSS
VL: not shown
B2: antibody 405 (antibody, V domains shown)
VH: not shown
VL: QSALTQPRSVSGSPGQSVTISCTGTSSDVGGYNYVSWYQQHPGKAPKLMIYDVSKRPSGVPDRFSGSKSGNTASLTISGLQAEDEADYYCCSYAGSYNVVFGGGTKLTVL
B3: antibody 409 (antibody, V domains shown)
VH: QVTLRESGPALVKPTQTLTLTCTFSGFSLSTSGMCVSWIRQPPGKALEWLALIDWDDDKYYSTSLKTRLTISKDTSKNQVVLTMTNMDPVDTATYYCARTTYYYVSGRRAEFDPWGQGTLVTVSS
VL: NFMLTQPHSVSESPGKTVTISCTGSSGSIASNYVQWYQQRPGSAPTTVIYEDNQRPSGVPDRFSGSIDSSSNSASLTISGLKTEDEADYYCQSYDSSNQGVFGGGTKLTVL
B4: antibody 385 (antibody, V domains shown)
VH: QVQLVESGGGVVQPGRSLRLSCAASGFTFSSYAIHWVRQAPGKGLEWVAVISYDGSNKYYADSVKGRFTISRDNSKNTLYLQMNSLRAEDTAVYYCARPRSGSYWGAFDIWGQGTMVTVSS
VL: QSVLTQPPSVSGAPGQRVTISCTGSSSNIGARYDVHWYQQLPGTAPKLLIYGNSNRPSGVPDRFSGSKSGTSASLAITGLQAEDEADYYCQSYDSSLRGVFGGGTKLTVL
B5: antibody 395 (antibody, V domains shown)
VH: QVQLVQSGSELKKPGASVKLSCQASGYTFSNHAMNWVRQAPGQGLEWMGWINTNTGNPTYAQGFTGRFVFSLDTSVGTAYLHISSLKAEDTAFYYCARASARPGVATNLDFWGQGTLVVVSS
VL: DIQMTQSPSSLSASVGDRVTITCRTSQNIDNYLNWYQQKPGKAPNLLIYAASRLHSGVPSRFSGSGSGTDFTLIISSLQPEDLATYYCQQSYSNPLTFGPGTKVDIR
B6: anti-SARS-CoV-2 antibody 456 (antibody, V domains shown)
VH: QVQLQQWGAGLLKPSETLSLTCAVYGGSFSGYYWSWIRQPPGKGLEWIGEINHSGSTNYNPSLKSRVTISVDTSKNQFSLKLSSVTAADTAVYYCARDGSGSYYLSYYFDYWGQGTLVTVSS
VL: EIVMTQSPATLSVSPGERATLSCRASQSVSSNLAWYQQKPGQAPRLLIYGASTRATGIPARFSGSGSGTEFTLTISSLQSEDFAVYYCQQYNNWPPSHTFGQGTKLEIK
B7: anti-SARS-CoV-2 antibody 470 (antibody, V domains shown)
VH: not shown
VL: B2 VL with R8A, V18I, G31S, Y34L, D52E, P61S, D62N, Y97S, N98T, V99L
B8: anti-SARS-CoV-2 antibody 471 (antibody, V domains shown)
VH: QVQLVESGGGVVQPGRSLRLSCAASGFTFSSYAMHWVRQAPGKGLEWVAVISYDGSNKYYADSVKGRFTISRDNSKNTLYLQMNSLRAEDTAVYYCAKQYSPYCSGGSCYSGASDYWGQGTLVTVSS
VL: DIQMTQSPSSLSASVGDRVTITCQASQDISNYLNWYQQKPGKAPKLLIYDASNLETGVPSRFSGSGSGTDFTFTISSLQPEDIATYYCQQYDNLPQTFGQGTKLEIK
B9: antibody 560 (antibody, V domains shown)
VH: EVQLVESGGGLVQPGGSLRLSCAASGFTISSNYMSWVRQAPGKGLEWVSVIYSGGSTYYADSVKGRFTISRDNSKNTLYLQMNSLRAEDTAVYYCAREEGEWEKDYYGMDVWGQGTTVTVSS
VL: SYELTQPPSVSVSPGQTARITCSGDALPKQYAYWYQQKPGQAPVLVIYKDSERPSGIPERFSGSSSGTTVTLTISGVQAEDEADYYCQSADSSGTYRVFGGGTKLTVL
B10: antibody 563 (antibody, V domains shown)
VH: QVQLVESGGGVVQPGRSLRLSCAASGFTFSSYAMHWVRQAPGKGLEWVAVISDDGSNKYYADSVKGRFTISRDNSKNTLYLQMNSLRAEDTAVYYCARDIVATIRRLFDYWGQGTLVTVSS
VL: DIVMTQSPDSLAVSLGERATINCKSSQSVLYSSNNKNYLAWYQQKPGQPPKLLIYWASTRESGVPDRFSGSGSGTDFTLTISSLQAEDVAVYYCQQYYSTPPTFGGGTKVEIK
B11: antibody 547 (antibody, V domains shown)
VH: QVHLVESGGGVVQPGRSLRLSCAASGFALSSYAMHWVRQPPGKGLEWVALISYDGSVKKYADSVKGRITVSGDNSRNTLHLQINSLRADDTAVYYCVRGGVSGPNSFDLWGHGTMVTVSS
VL: DVVLTQSPLSLPVTLGQPASISCRSSQSLEYSVGNTYVNWFQQRPGQSPRRLIYKVSNRDSGVPDRFSGSGSGTDFTLQISRVEADDVGIYYCMQGTHWPVTFGQGTKVEIK
B12: antibody 571 (antibody, V domains shown)
VH: EVQLVESGGGLVQPGGSLRLSCAASGFTFSTYWMTWVRQAPGKGLEWVANIKHDGSGKYHVDSVKGRFTISRDNAKNSLYLQMNSLRAEDTAVYYCTRDEGGWYDYWGQGTLVTVSS
VL: QSALTQPASVSGSPGQSITISCTGTSSDVGSYNPVSWYQQHPGKAPKVMIYEGSKRPSGVSNRFSGSKSGNTASLTISGLQAEDEADYYCCSYARSSTFVVFGGGTKLTVL
B13: antibody 566 (antibody, V domains shown)
VH: QVQLVQSGAEVKKPGASVKVSCKASGYTFTSYAMHWVRQAPGQRLEWMGWINAGNGNTKYSQKFQGRVTITRDTSASTAYMELSSLRSEDTAVYYCARDLGVAVTLHPADFDYWGQGTLVTVSS
VL: QSVLTQPPSVSGAPGQRVTISCTGSSSNIGAGYDVHWYQQLPGTAPKLLIYDNSNRPSGVPDRFSGSKSGTSASLAITGLQAEDEADYYCQSYDSSLSAVVFGGGTKLTVL
B14: antibody 548 (antibody, V domains shown)
VH: B4 VH with I34M, S85N, R98K, P99S, R100G, W105L, G106S
VL: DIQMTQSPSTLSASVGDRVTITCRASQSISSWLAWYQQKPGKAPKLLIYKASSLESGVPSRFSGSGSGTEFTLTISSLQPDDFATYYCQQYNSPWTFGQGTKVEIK
B15: antibody 569 (antibody, V domains shown)
VH: B4 VH with I34M, P99A, R100S, S103G, W105Q, A107P, I110P, M116L
VL: EIVLTQSPATLSLSPGERATLSCRASQSVSSYLAWYQQKPGQAPRLLIYDASNRATGIPARFSGSGSGTDFTLTISSLEPEDFAVYYCQQRSSPFGPGTKVDIK
B16: antibody 556 (antibody, V domains shown)
VH: QVQLVESGGGVVQPGRSLRLSCAASGFTFSSYAMHWVRQAPGKGLEWVAVISYDGSDKYYADSVKGRVTISRDNSKNTLYLQMNSLRVEDTAVFYCAKDDCSGGVCFPDYWGQGTLVTVSS
VL: QSALTQPASVSGSPGQSITISCTGTSSDVGGYNYVSWYQQHPGKAPKLMIYEVSIRPSGVSNRFSGSKSGNTASLTISGLQAEDEAAYYCSSYTSSSTLVFGGGTKLTVL
B17: antibody 564 (antibody, V domains shown)
VH: QVHLVESGGGVVQPGKSLRLSCAASGFIFSSFGMHWVRQPPGKGLEWLAVVSYDGSVTKYSDSFEGRFTISRDNSKNTLYLQMDSLRPEDTAVYYCAKGQGTNLLHYWGQGILVTVSS
VL: DVVLSQSPLSLPVTLGQPASISCRSSESLVYTDGDTYLHWFHQRPGQSPRRLIFKVSHRESGVPDRISGSGSGTDFTLKISRVEAEDVGVYYCMQGTHWPFTFGPGTKVDIK
B18: antibody 565 (antibody, V domains shown)
VH: EVQLVESGGGLVQPGGSLRLSCTASGFTLSDHYMDWVRQAPGKGLEWVARTRNKVNSYSTEYAASVKGRFSMSRDDSKNSLYLQMTRLQTDDTAVYYCARSLMILGARGASDYWGQGTLVTVSS
VL: DIQMTQSPSTLSASAGDRVTITCRASQNIDSWLAWYQQHPGKAPNLLIYKASFLQSGVPSRFSGSGSGTEFTLTISSLQPDDFATYYCQQYNSYPVTFGQGTRLEIK

Target: SARS-CoV-2 full length spike protein (wild type), conjugated to beads (SARS-CoV-2, UniProt P0DTC2 14-1208)

Binder	binding signal, bead assay [fold over isotype]
B1	785
B2	487
B3	552
B4	602
B5	592

Target: SARS-CoV-2 spike (S) protein, full length, wild type (SARS-CoV-2, UniProt P0DTC2 14-1208)

Binder	median fluorescence fold over isotype [fold over isotype]
B6	595
B7	1180
B8	770

Target: SARS-CoV-2 full length spike (S) protein, wild type, expressed on the surface of CHO cells (SARS-CoV-2, UniProt P0DTC2 14-1273)

Binder	median fluorescence intensity, fold over isotype control [fold over isotype]
B9	22.8
B10	9.67
B11	10.6
B12	8.3
B13	31.5
B14	9.26
B15	8.78
B16	7.59
B17	10.8
B18	1.11
